The numbers were not newly measured in PMC2033707, which cites them from elsewhere.

This data set has as its target EGF (UniProt P01133).
UniProt P01133, sequence (P01133 971-1023): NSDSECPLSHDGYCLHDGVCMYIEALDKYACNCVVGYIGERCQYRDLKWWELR

One may read the Kd as the concentration at which binding is half-saturated. With EGFR (from UniProt P00533), the Kd is 1 nM.
